The values that follow come from article PMC9776664, “Crystal structure of the feruloyl esterase from Lentilactobacillus buchneri reveals a novel homodimeric state” (Frontiers in Microbiology, 2022).

In one data set the target is T1, LbFAE (Lentilactobacillus buchneri, UniProt D7RU28).
T1 construct: gene faeA; synthetic gene in pNIC28-Bsa4, E. coli BL21(DE3)-T1; Ni-NTA and SEC; homodimer about 60 kDa; monomer model 260 residues; catalytic triad Ser114, Asp206, His233
Briefly: X-ray crystal structure, […] Å, wild-type crystal soaked with FA. The class given is binding. To be noted: active site; crystal grown with 0.1 M sodium cacodylate pH 6.5, 0.2 M calcium acetate, PEG 8000.

Data set [1] concerns the molecule itself. Briefly: SEC; HiLoad 16/60 Superdex 200 prep grade, 20 mM Hepes pH 7.5, 150 mM NaCl, 1 ml/min, 4°C; calibrated with ferritin, aldolase, conalbumin, ribonuclease A.
Substrate in data set [2]: COc1cc(/C=C/C(=O)Oc2ccc([N+](=O)[O-])cc2)ccc1O
Put plainly: spectrophotometric assay, Michaelis-Menten fit. The class given is biochemical, Lentilactobacillus buchneri. To be noted: pH 6.5, 40 °C, free enzyme. An excerpt:
spectrophotometric assay, Michaelis-Menten fit on LbFAE

Substrate in data set [3]: COC(=O)/C=C/c1ccc(O)c(OC)c1
Put plainly: HPLC of released ferulic acid, Michaelis-Menten fit. Format: biochemical, Lentilactobacillus buchneri. The note with it: pH 6.5, 40 °C, free enzyme. From the text: HPLC of released ferulic acid, Michaelis-Menten fit on LbFAE

In the case of `COc1cc(/C=C/C(=O)O)ccc1O` [FA, 4-hydroxy-3-methoxy-cinnamic acid], the “X-ray crystal structure, 1.90 Å, wild-type crystal soaked with FA” value on LbFAE is “only FA (i.e., the product) resulted in a complex with LbFAE”.

B1: feruloyl esterase (LbFAE) from Lentilactobacillus buchneri LN 4017, wild type (enzyme, UniProt D7RU28 1-260, looked up)
chain: MIKFVTTEINGLTLRGTAHVPDGEPGQQFPTVLMFHGFGAVRDEGFRLFIQMSNRLMENGIAAVRFDFGCHGESDGEFEDFTFSQELNEGSALIDAVKSMSFVDSTKFSLLGESLGSVAASIVAGKRSTELTSLCMWSPAASFLDEILNDHTLQGKTVDNVEKDGYFDFYGLKLGKAFFDDLKNINIFDNAKKYQGPVKIVYGTNDFIPEKYSHKYMDGYENGELVIVQDGDHGWQSVPSRKRILDETMKFFRKTLLEAK
notes: Feruloyl esterase annotated as type-A FAE (faeA) from L. buchneri silage additive strain LN4017 (ATCC PTA-6138); synthetic gene amplified with primers from the ATG start to the stop codon; the monomer structure includes 260 amino acids; Cloned into pNIC28-Bsa4 by LIC; Theoretical mass with His6 tag and TEV site 31.6 kDa; also called faeA; source: E. coli BL21(DE3)-T1, purified (Ni-NTA, SEC)
For the molecule B1, in data set [1], the “stoichiometry N” value came out at 2. In addition, in data set [2], the Km amounted to 900 µM, the maximal velocity (Vmax) stood at 6.9 µmol/min/mg, the kcat worked out at 6.7 s⁻¹ and the kcat/Km came out at 7540 M⁻¹ s⁻¹. Also, in data set [3], the Km was 65 µM, the Vmax is 6.57 µmol/min/mg, the kcat amounted to 16.3 s⁻¹ and the catalytic efficiency (kcat/Km) came to 252000 M⁻¹ s⁻¹.

For orientation: stoichiometry N means the number of molecules, sites or subunits per partner or assembly. By Km is commonly meant the substrate concentration at which the rate is half of its maximum. What is called Vmax is the top rate of the reaction or transport when substrate is in excess. What is called kcat is the number of substrate molecules converted per active site and unit of time at saturation. What is called kcat/Km is the turnover number divided by the Michaelis constant.
